We go through 5 substances from PMC3185003.

Assay [1] concerns the target ABD_(T002). In words: SPR; ProteOn XPR36; ABD-molecules immobilized by amine coupling on GLM or GLC chips (about 800-1500 RU); HSA (7-1200 nM) or TNF-α (1-100 nM) injected, 50 µl/min, 25°C, PBS with 0.1% Tween 20; at least triplicates, two chips, two days; apparent KD for TNF-α (monomer concentration). Background: Surface plasmon resonance follows binding to a sensor surface in real time, without labels.

Assay [2] addresses ABD_(T004). The assay is described as above.
Assay [3] concerns the target ABD_(HT015). The description is as above.
For assay [4], the target named is ABD_(HT016). The assay is described as above.
Assay [5] has as its target ABD_(T001). Described as above.
Assay [6] has as its target human serum albumin (human) (UniProt P02768). Nature of the assay: SPR; BIAcore 2000; HSA immobilized (2000 RU); ABD-variants injected in duplicates at about 1-3000 nM (up to 250 nM for ABD); 25°C, HBS-EP.
Assay [7] addresses ABD_(TNF1) displayed on staphylococcal cells. In words: flow cytometry on cells; S. carnosus cells displaying ABD-variants incubated 1 h at RT in PBSP pH 7.4 with twelve concentrations of biotinylated TNF-α (4.3-12900 nM; streptavidin-Alexa Fluor 488) or HSA-Alexa 488 (1.25-2500 nM; 10-20000 nM for ABD_(TNF1)); MFI fitted to a 1:1 model; apparent KD for TNF-α (monomer concentration). Background: Flow cytometry measures light scatter and fluorescence of single cells or particles in a stream.

In assay [8] the target is ABD_(TNF2) displayed on staphylococcal cells. The assay is described as above.
In assay [9] the target is non-randomized ABD displayed on staphylococcal cells (not stated (streptococcal)). Described as above.

Chain of biotinylated TNF-α (P01375 77-233): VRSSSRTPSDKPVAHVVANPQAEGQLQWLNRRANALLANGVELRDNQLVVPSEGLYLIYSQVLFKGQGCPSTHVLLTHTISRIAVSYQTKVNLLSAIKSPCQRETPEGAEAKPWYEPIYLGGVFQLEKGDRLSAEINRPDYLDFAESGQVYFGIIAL

In the case of “human serum albumin (from UniProt P02768 25-609) (natural protein)”, the Kd in assay [1] is 0.649 µM; in assay [2], 0.209 µM; in assay [3], 0.035 µM; in [4] it was 0.068 µM; in [5] it was 0.192 µM.

Broadly, the koff is the rate constant with which the complex falls apart. By kon is commonly meant the second-order rate constant of association. Turning to “non-randomized ABD (alkali-stabilized albumin-binding domain from streptococcal protein G) (domain or fragment)”, in assay [6], the Kd worked out at 0.0053 µM, the koff is 0.0009 s⁻¹ and the kon is 170000 M⁻¹ s⁻¹.

Consider “biotinylated TNF-α (from UniProt P01375 77-233) (ligand)”, for which the Kd in [7] is 0.267 µM; in assay [8], 0.594 µM.

Turning to “tumor necrosis factor-α (from UniProt P01375 77-233) (ligand)”, the Kd in [1] was determined as 0.0029 µM; in [4], 0.0045 µM; in [5], 0.0052 µM.

With “HSA conjugated to Alexa Fluor 488 (from UniProt P02768 25-609) (natural protein)”, the figures for the Kd in [8] and in assay [9] were 0.023 µM and 0.019 µM, respectively.
